# The supplement of paper PMC10567573
# B1: LMNB1 (parent)
# chain: LYKEELEQTYHAKLENARLSSEMN
# Variants of: B1
# Test: protein stability index of a GFP-peptide fusion (GPS, HEK-293T) (PSI 1-6); higher = more stable
# Details: c terminus: a fixed tail appended
# 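Further: lentivirally expressed fusions sorted by FACS into six bins by GFP to DsRed ratio, PSI derived from sequencing read proportions per bin multiplied by bin number.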
row,Variant,protein stability index
1,LYKEELEQTYHAKLENARLSSEFN [M23F],2.42
2,LYKEELEQTYHAKLENARLSSEHN [M23H],2.94
3,LYKEELEQTYHAKLENARLSSESN [M23S],2.87
4,LYKEELEQTYHAKLENARLSSEAN [M23A],3.24
5,LYKEELEQTYHAKLENARLSSENN [M23N],2.95
6,LYKEELEQTYHAKLENARLSSEGN [M23G],2.8
7,LYKEELEQTYHAKLENARLSSEIN [M23I],2.6
8,LYKEELEQTYHAKLENARLSSRMN [E22R],2.88
9,LYKEELEQTYHAKLENARLSSWMN [E22W],1.74
10,LYKEELEQTYHAKLENARLSSIMN [E22I],2.74
11,LYKEELEQTYHAKLENARLSSCMN [E22C],2.83
12,LYKEELEQTYHAKLENARLSSNMN [E22N],3.3
13,LYKEELEQTYHAKLENARLSSMMN [E22M],2.58
14,LYKEELEQTYHAKLENARLSSDMN [E22D],2.62
15,LYKEELEQTYHAKLENARLSSYMN [E22Y],2.4
16,LYKEELEQTYHAKLENARLSSHMN [E22H],2.22
17,LYKEELEQTYHAKLENARLSSGMN [E22G],2.81
18,LYKEELEQTYHAKLENARLSSQMN [E22Q],2.73
19,LYKEELEQTYHAKLENARLSSFMN [E22F],1.93
20,LYKEELEQTYHAKLENARLSSVMN [E22V],2.42
21,LYKEELEQTYHAKLENARLSSKMN [E22K],2.61
22,LYKEELEQTYHAKLENARLSSLMN [E22L],2.68
23,LYKEELEQTYHAKLENARLSSTMN [E22T],2.35
24,LYKEELEQTYHAKLENARLSSSMN [E22S],3.44

row,Variant,protein stability index
1,LYKEELEQTYHAKLENARLSSPMN [E22P],2.4
2,LYKEELEQTYHAKLENARLSSAMN [E22A],2.63
3,LYKEELEQTYHAKLENARLSSEMF [N24F],1.88
4,LYKEELEQTYHAKLENARLSSEMA [N24A],2.43
5,LYKEELEQTYHAKLENARLSSEMC [N24C],2.33
6,LYKEELEQTYHAKLENARLSSEML [N24L],2.51
7,LYKEELEQTYHAKLENARLSSEMH [N24H],3.28
8,LYKEELEQTYHAKLENARLSSEMM [N24M],2.6
9,LYKEELEQTYHAKLENARLSSEMG [N24G],3.47
10,LYKEELEQTYHAKLENARLSSEMK [N24K],2.33
11,LYKEELEQTYHAKLENARLSSEMD [N24D],3.25
12,LYKEELEQTYHAKLENARLSSEME [N24E],3.25
13,LYKEELEQTYHAKLENARLSSEMI [N24I],2.48
14,LYKEELEQTYHAKLANARLSSEMN [E15A],2.61
15,LYKEELEQTYHAKLYNARLSSEMN [E15Y],2.47
16,LYKEELEQTYHAKLTNARLSSEMN [E15T],2.25
17,LYKEELEQTYHAKLSNARLSSEMN [E15S],2.33
18,LYKEELEQTYHAKLDNARLSSEMN [E15D],3.48
19,LYKEELEQTYHAKLQNARLSSEMN [E15Q],2.58
20,LYKEELEQTYHAKLCNARLSSEMN [E15C],2.06
21,LYKEELEQTYHAKLMNARLSSEMN [E15M],1.94
22,LYKEELEQTYHAKLVNARLSSEMN [E15V],2.01
23,LYKEELEQTYHAKLNNARLSSEMN [E15N],2.71
24,LYKEELEQTYHAKLRNARLSSEMN [E15R],2.76

row,Variant,protein stability index
1,LYKEELEQTYHAKLWNARLSSEMN [E15W],1.94
2,LYKEELEQTYHAKLKNARLSSEMN [E15K],2.98
3,LYKEELEQTYHAKLFNARLSSEMN [E15F],2.38
4,LYKEELEQTYHAKLPNARLSSEMN [E15P],3.31
5,LYKEELEQTYHAKLLNARLSSEMN [E15L],2.9
6,LYKEELEQTYHAKLINARLSSEMN [E15I],2.44
7,LYKEELEQTYHAKLGNARLSSEMN [E15G],2.65
8,LYKEELEQTYHAKLHNARLSSEMN [E15H],2.38
9,LYKEELEQTYHAKLENARQSSEMN [L19Q],3.92
10,LYKEELEQTYHAKLENARCSSEMN [L19C],3.36
11,LYKEELEQTYHAKLENARDSSEMN [L19D],4.25
12,LYKEELEQTYHAKLENARKSSEMN [L19K],3.35
13,LYKEELEQTYHAKLENARRSSEMN [L19R],3.79
14,LYKEELEQTYHAKLENARSSSEMN [L19S],3.08
15,LYKEELEQTYHAKLENARFSSEMN [L19F],2.68
16,LYKEELEQTYHAKLENARTSSEMN [L19T],3.6
17,LYKEELEQTYHAKLENARPSSEMN [L19P],2.74
18,LYKEELEQTYHAKLENARMSSEMN [L19M],3.15
19,LYKEELEQTYHAKLENARWSSEMN [L19W],1.8
20,LYKEELEQTYHAKLENARYSSEMN [L19Y],2.36
21,LYKEELEQTYHAKLENARGSSEMN [L19G],3.88
22,LYKEELEQTYHAKLENARESSEMN [L19E],4.75
23,LYKEELEQTYHAKLENARASSEMN [L19A],3.67
24,LYKEELEQTYHAKLENARISSEMN [L19I],2.39

row,Variant,protein stability index
1,LYKEELEQTYHAKLENARVSSEMN [L19V],2.88
2,LYKEELEQTYHAKLENARHSSEMN [L19H],3.31
3,LYKEELEQTYHAKLENARNSSEMN [L19N],3.76
4,LYKEELEQTYHAKLENASLSSEMN [R18S],2.92
5,LYKEELEQTYHAKLENALLSSEMN [R18L],2.81
6,LYKEELEQTYHAKLENAMLSSEMN [R18M],2.76
7,LYKEELEQTYHAKLENACLSSEMN [R18C],2.6
8,LYKEELEQTYHAKLENAVLSSEMN [R18V],2.1
9,LYKEELEQTYHAKLENAHLSSEMN [R18H],3.1
10,LYKEELEQTYHAKLENAILSSEMN [R18I],2.27
11,LYKEELEQTYHAKLENATLSSEMN [R18T],2.73
12,LYKEELEQTYHAKLENAWLSSEMN [R18W],1.08
13,LYKEELEQTYHAKLENAYLSSEMN [R18Y],2.24
14,LYKEELEQTYHAKLENANLSSEMN [R18N],3.83
15,LYKEELEQTYHAKLENAPLSSEMN [R18P],3.62
16,LYKEELEQTYHAKLENAKLSSEMN [R18K],3.31
17,LYKEELEQTYHAKLENAQLSSEMN [R18Q],3.14
18,LYKEELEQTYHAKLENAGLSSEMN [R18G],3.35
19,LYKEELEQTYHAKLENAELSSEMN [R18E],3.72
20,LYKEELEQTYHAKLENAALSSEMN [R18A],3.26
21,LYKEELEQTYHAKLENAFLSSEMN [R18F],2.17
22,LYKEELEQTYHAKLENADLSSEMN [R18D],3.7
